The results in this text go back to paper PMC9303355 (Diabetes, Obesity & Metabolism, 2022).

What all share (type): in vivo, healthy subjects (human)
A short description of series [1]: Safety assessments. The note with it: single 0.3 IU/kg s.c.
Series [2] is described as follows: Pharmacokinetics of plasma insulin after a single subcutaneous dose. The note with it: healthy subjects, single 0.3 IU/kg s.c., PP population, median.
Series [3] has as its system blood glucose (glucose infusion rate). Nature of the series: Automated euglycaemic glucose clamp. As to conditions: healthy subjects; single 0.3 IU/kg s.c.; PP population; median, N=39/38.

Regarding “Humulin‐R: US‐approved reference regular recombinant human insulin product (Eli Lilly and Company)”, in series [1] (healthy subjects), the tolerability result is “generally well tolerated”. Moreover, in series [1] (safety analysis set), the “headache (number of events)” value is listed as “eight”, the “injection‐site reactions (number of AEs)” value was “four”, the subjects with headache entry was “eight” and the “subjects with injection‐site reactions” value is reported as “three”. In addition, the “λz (terminal elimination rate constant of insulin)” value in series [2] (N=40/41) worked out at 0.5373 h⁻¹. Further, the “t50%‐ins(late)” value in series [2] (N=41) is on record as 6.23 h. Moreover, in series [3], the “t50%‐GIR(early)” value was 1.33 h, the “t50%‐GIR(late)” value turned out to be 7.03 h and the “tGIR.max (time to maximum glucose infusion rate)” value is on record as 4.15 h.
